We go through one substance from patent US20160122417A1.

In this assay the target is wild-type human EGFR from A431 cells (human) (UniProt P00533). As to the kind of experiment: scFv-linked agarose beads incubated with A431 cell lysate; captured EGFR detected with anti-EGFR antibody cocktail, bead fluorescence normalized to the U87-EGFRvIII lysate signal.

“MR1 scFv, azide-functionalized and immobilized on DBCO-functionalized agarose beads” gave a percent reduction in A431 lysate EGFR binding signal relative to U87-EGFRvIII lysate signal of 85%.
